# Source: patent US20230143604A1, “QW DOSING OF GIP RECEPTOR AGONIST PEPTIDE COMPOUNDS AND USES THEREOF” (TAKEDA PHARMACEUTICAL COMPANY LIMITED, priority 2020, published 2023)
# Changes are numbered by the printed parent chain. Starred links: 1 amine or outer side, 2 acyl side, 3 side chain; linkers in the order of their positions; H or OH if unused. Non-standard residues stand in square brackets, D forms with d. Groups on a side chain read outwards from the residue. No end group written: not given here. *: point of attachment. C18 diacid = O=C(O)CCCCCCCCCCCCCCCCC(=O)*; C17 diacid = O=C(O)CCCCCCCCCCCCCCCC(=O)*; γGlu = O=C(O)[C@H](CCC(=O)[*:2])N[*:1]; NMeY = CN[C@@H](Cc1ccc(O)cc1)C(=O)O; AEEA = NCCOCCOCC(=O)O; Aib = CC(C)(N)C(=O)O
# B1: Compound No. 154 (peptide)
# peptide: Y[Aib]EGTFISDYSIALDKAAQ[Aib]K([AEEA-AEEA-γGlu-γGlu-C18 diacid])FVEWLLAQRG-OH
# B2: Compound No. 142 (peptide)
# peptide: Y[Aib]EGTFISDYSIALDKIAQQK([AEEA-AEEA-γGlu-γGlu-C17 diacid])FVEWLLAQRG-OH
# B3: Compound No. 136 (peptide)
# peptide: [NMeY][Aib]EGTFISDYSIALDR[Aib]K([Gly-Gly-Pro-Ala-Pro-Ala-Pro-γGlu-C18 diacid])Q[Aib]DFVNWLLAQSPG-OH
# modifications: N-terminus assumed
# SMILES: CC[C@H](C)[C@H](NC(=O)[C@H](CO)NC(=O)[C@H](Cc1ccc(O)cc1)NC(=O)[C@H](CC(=O)O)NC(=O)[C@H](CO)NC(=O)[C@@H](NC(=O)[C@H](Cc1ccccc1)NC(=O)[C@@H](NC(=O)CNC(=O)[C@H](CCC(=O)O)NC(=O)C(C)(C)NC(=O)[C@H](Cc1ccc(O)cc1)NC)[C@@H](C)O)[C@@H](C)CC)C(=O)N[C@@H](C)C(=O)N[C@@H](CC(C)C)C(=O)N[C@@H](CC(=O)O)C(=O)N[C@@H](CCCNC(=N)N)C(=O)NC(C)(C)C(=O)N[C@@H](CCCCNC(=O)CNC(=O)CNC(=O)[C@@H]1CCCN1C(=O)[C@H](C)NC(=O)[C@@H]1CCCN1C(=O)[C@H](C)NC(=O)[C@@H]1CCCN1C(=O)CC[C@H](NC(=O)CCCCCCCCCCCCCCCCC(=O)O)C(=O)O)C(=O)N[C@@H](CCC(N)=O)C(=O)NC(C)(C)C(=O)N[C@@H](CC(=O)O)C(=O)N[C@@H](Cc1ccccc1)C(=O)N[C@H](C(=O)N[C@@H](CC(N)=O)C(=O)N[C@@H](Cc1c[nH]c2ccccc12)C(=O)N[C@@H](CC(C)C)C(=O)N[C@@H](CC(C)C)C(=O)N[C@@H](C)C(=O)N[C@@H](CCC(N)=O)C(=O)N[C@@H](CO)C(=O)N1CCC[C@H]1C(=O)NCC(=O)O)C(C)C
# B4: Compound No. 139 (peptide)
# peptide: YXEGTFISDYSIXXDRXAQXDFVEWLLAQRG
# modifications: N-terminus H; Aib at 2,13,17,20; Lys(G5-C18 diacid) at 14; C-terminal OH
# B5: Compound No. 144 (peptide)
# peptide: B4 peptide with X13A
# modifications: N-terminus H; Aib at 2,17,20; Lys(G5-C18 diacid) at 14; C-terminal OH
# B6: Compound No. 146 (peptide)
# peptide: B4 peptide with X20A
# modifications: N-terminus H; Aib at 2,13,17; Lys(G5-C18 diacid) at 14; C-terminal OH
# B7: Compound No. 149 (peptide)
# peptide: B4 peptide with X13A, X20A
# modifications: N-terminus H; Aib at 2,17; Lys(G5-C18 diacid) at 14; C-terminal OH
# B8: Compound No. 147 (peptide)
# peptide: B4 peptide with X20R
# modifications: N-terminus H; Aib at 2,13,17; Lys(G5-C18 diacid) at 14; C-terminal OH
# B9: Compound No. 151 (peptide)
# peptide: B4 peptide with R16S, X17A, E24N
# modifications: N-terminus H; Aib at 2,13,20; Lys(G5-C18 diacid) at 14; C-terminal OH
# B10: Compound No. 145 (peptide)
# peptide: B4 peptide with X17A
# modifications: N-terminus H; Aib at 2,13,20; Lys(G5-C18 diacid) at 14; C-terminal OH
# B11: Compound No. 150 (peptide)
# peptide: B4 peptide with R16S, E24N
# modifications: N-terminus H; Aib at 2,13,17,20; Lys(G5-C18 diacid) at 14; C-terminal OH
# B12: Compound No. 148 (peptide)
# peptide: B4 peptide with X17A, X20A
# modifications: N-terminus H; Aib at 2,13; Lys(G5-C18 diacid) at 14; C-terminal OH
# B13: Compound No. 152 (peptide)
# peptide: B4 peptide with R16S, X20A, E24N
# modifications: N-terminus H; Aib at 2,13,17; Lys(G5-C18 diacid) at 14; C-terminal OH
# B14: Compound No. 140 (peptide)
# peptide: H-Y[Aib]EGTFISDYSIALDR[Aib]AQ[Aib]K([AEEA-AEEA-γGlu-γGlu-C17 diacid])FVNWLLAQRG-OH
# SMILES: CC[C@H](C)[C@H](NC(=O)[C@H](CO)NC(=O)[C@H](Cc1ccc(O)cc1)NC(=O)[C@H](CC(=O)O)NC(=O)[C@H](CO)NC(=O)[C@@H](NC(=O)[C@H](Cc1ccccc1)NC(=O)[C@@H](NC(=O)CNC(=O)[C@H](CCC(=O)O)NC(=O)C(C)(C)NC(=O)[C@@H](N)Cc1ccc(O)cc1)[C@@H](C)O)[C@@H](C)CC)C(=O)N[C@@H](C)C(=O)N[C@@H](CC(C)C)C(=O)N[C@@H](CC(=O)O)C(=O)N[C@@H](CCCNC(=N)N)C(=O)NC(C)(C)C(=O)N[C@@H](C)C(=O)N[C@@H](CCC(N)=O)C(=O)NC(C)(C)C(=O)N[C@@H](CCCCNC(=O)COCCOCCNC(=O)COCCOCCNC(=O)CC[C@H](NC(=O)CC[C@H](NC(=O)CCCCCCCCCCCCCCCC(=O)O)C(=O)O)C(=O)O)C(=O)N[C@@H](Cc1ccccc1)C(=O)N[C@H](C(=O)N[C@@H](CC(N)=O)C(=O)N[C@@H](Cc1c[nH]c2ccccc12)C(=O)N[C@@H](CC(C)C)C(=O)N[C@@H](CC(C)C)C(=O)N[C@@H](C)C(=O)N[C@@H](CCC(N)=O)C(=O)N[C@@H](CCCNC(=N)N)C(=O)NCC(=O)O)C(C)C
# B15: Compound No. 143 (peptide)
# peptide: Y[Aib]EGTFISDYSIALDKIAQRK([AEEA-AEEA-γGlu-γGlu-C17 diacid])FVEWLLAQRG-OH
# B16: Compound No. 141 (peptide)
# peptide: Y[Aib]EGTFISDYSI[Aib]LDR[Aib]AQ[Aib]K([AEEA-AEEA-γGlu-γGlu-C18 diacid])FVNWLLAQRG-OH
# modifications: not fully specified (N-terminus)
# B17: Compound No. 153 (peptide)
# peptide: Y[Aib]EGTFISDYSIALDKIAQ[Aib]K([AEEA-AEEA-γGlu-γGlu-C18 diacid])FVEWLLAQRG-OH
# B18: Compound No. 14 (peptide)
# peptide: [NMeY][Aib]EGTFISDYSI[Aib]K([AEEA-AEEA-γGlu-γGlu-C17 diacid])DR[Aib]AQ[Aib]NFVNWLLAQRPSSGAPPPS-NH2
# B19: Compound No. 138 (peptide)
# peptide: YXEGTFISDYSIAXDRXAQXNFVNWLLAQSPSSGAPPPS
# modifications: N-terminus H; Aib at 2,17,20; Lys(G5-C18 diacid) at 14; C-terminal OH
# Biological target: full-length human GLP-1R with an N-terminal FLAG tag (human, UniProt P43220 24-463)
# Experiment: cell-based or functional assay
row,Binder,"Human GLP1R cAMP EC50, HEK293T [nM]"
1,B1,8.91
2,B2,158
3,B3,63.1
4,B4,8.91
5,B5,15.1
6,B6,7.08
7,B7,15.8
8,B8,1.66
9,B9,5.01
10,B10,9.33
11,B11,13.5
12,B12,8.71
13,B13,33.1
14,B14,3.98
15,B15,4.9
16,B16,5.25
17,B17,6.76
18,B18,172
19,B19,2.04

# Biological target: T1, full-length human GIPR with an N-terminal FLAG tag (human, UniProt P48546 22-466)
# T1 sequence (looked up): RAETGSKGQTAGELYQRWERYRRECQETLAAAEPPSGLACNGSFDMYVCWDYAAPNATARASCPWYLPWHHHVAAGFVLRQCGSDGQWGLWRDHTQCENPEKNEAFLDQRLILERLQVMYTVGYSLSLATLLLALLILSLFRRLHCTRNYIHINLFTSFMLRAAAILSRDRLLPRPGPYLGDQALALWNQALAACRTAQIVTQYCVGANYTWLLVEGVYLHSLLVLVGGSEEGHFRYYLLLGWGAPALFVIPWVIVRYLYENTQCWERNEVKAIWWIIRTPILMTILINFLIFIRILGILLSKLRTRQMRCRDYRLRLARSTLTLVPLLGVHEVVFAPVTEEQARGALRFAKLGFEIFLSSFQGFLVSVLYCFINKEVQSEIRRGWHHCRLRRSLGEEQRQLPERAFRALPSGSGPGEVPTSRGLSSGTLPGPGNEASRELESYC
# Experiment: cell-based or functional assay
row,Binder,"Human GIPR cAMP EC50, HEK293T [nM]"
1,B1,0.0003
2,B2,0.0004
3,B3,0.0007
4,B4,0.0015
5,B5,0.0009
6,B6,0.0008
7,B7,0.0007
8,B8,0.0008
9,B9,0.0003
10,B10,0.0018
11,B11,0.0004
12,B12,0.0004
13,B13,0.0006
14,B14,0.0007
15,B15,0.0004
16,B16,0.0005
17,B17,0.0003
18,B18,0.0003
19,B19,0.0008
